Test [1] has as its target C3b (UniProt P01024). Put plainly: ITC, polypeptide titrated into C3b; fit box in the lower panel. (In general: In ITC the heat of successive injections is recorded.)
Test [2] addresses C3b (UniProt P01024). As to the kind of experiment: SPR, target amine-coupled to chip, single cycle kinetics, 1:1 Langmuir fit. Background: Surface plasmon resonance follows binding to a sensor surface in real time, without labels.
Test [3] addresses C3b (UniProt P01024). As to the kind of experiment: ITC.
The target in test [4] is C3b (UniProt P01024). As to the kind of experiment: ITC, binder titrated into target.

B1: polypeptide having the amino acid sequence of SEQ ID NO: 27 (designed binder)
chain: MVKVKFEATGEEKEVDTSKIYQVYRSGKEVLFTYDDNGKTGWGYVSEKDAPKELLDMLARAEREK
What is called Kd is the free concentration of one partner at which half of the binding sites on the other are occupied at equilibrium, for simple one-to-one binding. Consider B1, for which the Ka in the test with C3b [1] came out at 3.88e+08 M⁻¹. In the test with C3b [2], this molecule yielded a dissociation constant (Kd) of 1.92 nM. In the test with C3b [3], the Kd came out at 2.6 nM. Moreover, in the test with C3b [4], the -TΔS was determined as 23.9 kcal/mol, the Kd turned out to be 2.6 nM, the N is 0.95 and the ΔG is -11.7 kcal/mol. In the test with C3b [4], this molecule displayed a ΔH of -35.6 kcal/mol.

B2: polypeptide comprising the amino acid sequence of SEQ ID NO: 33 (designed binder)
chain: MVKVKFAATGEEKEVETSKIANVYRVGKDVLFSYDDQGKIGWGYVSEKDAPKELLDLLARAEREK
Take B2: the Ka in the test with C3b [1] came out at 7.95e+08 M⁻¹. This molecule gave an equilibrium dissociation constant (Kd) with C3b [2] of 0.16 nM. In the test with C3b [3], this molecule gave a Kd of 1.3 nM. In the test with C3b [4], this molecule gave a -TΔS of 6.5 kcal/mol, a Kd of 1.3 nM, an N of 0.9 and a ΔG of -12.1 kcal/mol. In the test with C3b [4], this molecule displayed a ΔH of -18.6 kcal/mol.

B3: polypeptide comprising the amino acid sequence of SEQ ID NO: 34 (designed binder)
chain: MVKVKFDATGEEKEVETSKISAVYRTGKDVLFSYDDQGKIGWGYVSEKDAPKELLDLLARAEREK
Turning to B3, the Ka with C3b [1] was 1.4e+09 M⁻¹. Further, the Kd in the test with C3b [2] amounted to 0.42 nM. In addition, the Kd with C3b [3] was determined as 0.7 nM. In the test with C3b [4], this molecule displayed a -TΔS of 14.7 kcal/mol, a Kd of 0.7 nM, an N of 0.89 and a ΔG of -12.5 kcal/mol. In the test with C3b [4], this molecule returned a ΔH of -27.2 kcal/mol.

(Values after patent US20250145673A1.)
